From article PMC8554105

What was measured:
[1] = molecular target: T. brucei coronin coiled-coil domain V507M (T. brucei) (UniProt Q57W63); experiment: crystal structure
[2] = molecular target: T. brucei coronin coiled-coil domain (T. brucei) (UniProt Q57W63); experiment: SEC
[3] = molecular target: T. brucei coronin coiled-coil domain (T. brucei) (UniProt Q57W63); experiment: cross-linking
[4] = molecular target: T. brucei coronin coiled-coil domain (T. brucei) (UniProt Q57W63); experiment: crystal structure
[5] = molecular target: T. brucei coronin coiled-coil domain (T. brucei) (UniProt Q57W63); experiment: SAXS
[6] = molecular target: T. brucei coronin coiled-coil domain V493I–V507M (T. brucei) (UniProt Q57W63); experiment: crystal structure

T. brucei coronin coiled-coil domain V507M (from UniProt Q57W63 477-523) (domain or fragment)
stoichiometry N [1]: 4

T. brucei coronin coiled-coil domain (from UniProt Q57W63 477-523) (domain or fragment)
stoichiometry N [2]: 4 | stoichiometry N [3]: 4 | stoichiometry N [4]: 4 | stoichiometry N [5]: 4

T. brucei coronin coiled-coil domain V493I–V507M (from UniProt Q57W63 477-523) (domain or fragment)
stoichiometry N [6]: 4
